According to patent US20250195679A1, “ANTIBODY-DRUG CONJUGATE AND USE THEREOF” (SHANGHAI HUAOTA BIOPHARMACEUTICAL CO., LTD., priority 2022, published 2025):

T1: CD73 on the cell surface of Calu6 cells (Homo sapiens, UniProt P21589)
T1 construct: endogenous in cells; host or cells: Calu6
T1 sequence (P21589 27-549): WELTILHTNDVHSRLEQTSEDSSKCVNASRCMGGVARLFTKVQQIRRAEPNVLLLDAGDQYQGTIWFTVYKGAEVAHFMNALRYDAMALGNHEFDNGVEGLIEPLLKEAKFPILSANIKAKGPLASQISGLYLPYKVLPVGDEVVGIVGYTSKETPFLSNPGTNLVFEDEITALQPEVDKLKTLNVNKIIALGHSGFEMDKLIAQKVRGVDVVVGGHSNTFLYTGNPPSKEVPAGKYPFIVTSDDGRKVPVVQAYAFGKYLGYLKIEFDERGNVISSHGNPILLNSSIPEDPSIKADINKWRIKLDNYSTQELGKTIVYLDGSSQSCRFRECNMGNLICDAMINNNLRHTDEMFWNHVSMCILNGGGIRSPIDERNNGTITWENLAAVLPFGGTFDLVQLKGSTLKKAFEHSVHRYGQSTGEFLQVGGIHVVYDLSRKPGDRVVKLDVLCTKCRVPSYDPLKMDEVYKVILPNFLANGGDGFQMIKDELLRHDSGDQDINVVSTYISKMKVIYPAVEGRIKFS

B1: Antibody-drug conjugate 1: 900698 antibody cysteine-conjugated to SN-38 via Mc-VC-PAB-DMEDA-PEG linker, DAR about 7.8 (conjugate)
VH: QVQLVESGGGLVKPGGSLRLSCAASGFTFSKYAMSWIRQAPGKGLEWVAEISSGGGYINYADSVKGRFTISRDNAKNSLYLQMNSLRAEDTAVYYCARAIYYYGSSYNYYAMDYWGQGTTVTVSS
VL: DIQMTQSPSSLSASVGDRVTITCRASQDVGTAEAWYQQKPGKAPKLLIYWASTRHTGVPSRFSGSGSGTDFTLTISSLQPEDFATYYCQQYSSYPLTFGQGTKLEIK
B2: Antibody-drug conjugate 2: 900698 antibody cysteine-conjugated to SN-38 via MP2-VC-PAB-DMEDA-PEG linker, DAR about 7.8 (conjugate)
VH: B1 VH
VL: B1 VL

Columns and labels:
[1] = biological target: T1, CD73 on the cell surface of Calu6 cells; test: Induction of endocytosis of CD73 antigen on cell surface (Calu6 cells, flow cytometry); assay type: cell-based; details: Example 5, 1 μg/mL, 5 h, 37° C. vs 4° C.
Method: The antibody-drug conjugate 1 and the antibody-drug conjugate 2 prepared in Example 1 and the 900698 naked antibody were diluted to 1 μg/mL with a PBS solution, with 2 replicate wells set up for each concentration. Calu6 cells in the logarithmic growth phase were taken and prepared into a cell suspension at 2×10^5 cells/mL. The cell suspension was then added at 100 μL (about 20000 cells) per well to a 96-well U-bottom plate and centrifuged at 300 g for 3 min, and then the supernatant was discarded. Then, the diluted antigen-binding proteins were each added at 100 μL/well to resuspend the cells, and the mixture was mixed uniformly and incubated at 4° C. for 30 min. […] After the incubation was completed, the cells were washed twice and centrifuged at 300 g for 3 min, and the fluorescence intensity was detected by flow cytometry.
The endocytosis efficiency of monoclonal antibodies 900698 and 900725 was compared through an endocytosis assay, with the procedures as follows: Anti-CD73 antigen-binding proteins such as the CD73 positive control antibody BMS-986179, 900698, and 900725 were diluted to 1 μg/mL with a PBS solution, with 2 replicate wells set up for each concentration. […] After the incubation was completed, the cells were washed twice and centrifuged at 300 g for 3 min, and the fluorescence intensity was detected by flow cytometry. […]

[2] = system: BxPC-3 human pancreatic cancer cells; test: BxPC3 CDX pancreatic cancer mouse efficacy model; assay type: in vivo, NPG mice; details: for inhibition of growth of BxPC-3 pancreatic cancer: 1 mg/kg i.p. BIW, 6 doses, FIG. 7; for inhibitory effect on tumor growth compared with 900698, Oleclumab and Uliledlimab: conjugate 1 mg/kg vs antibodies 5 mg/kg, i.p. BIW
Method: NPG mice were used to establish a BxPC-3 pancreatic cancer animal model for assaying the efficacy of the test antibodies. The BxPC-3 human pancreatic cancer cells used in this example were incubated in an RPMI-1640 medium supplemented with 10% FBS in an incubator at 37° C. with 5% CO2. Before continuous cell culturing for ten generations, 100 μL of PBS containing about 1×10^7 BxPC-3 cells was mixed uniformly with an equal volume of Matrigel. The mixture was then inoculated by subcutaneous injection into 18 NPG mice on the right side of the back near the axilla, with an inoculation volume of about 200 μL. The mice were anesthetized with 2%-5% isoflurane prior to the inoculation. On the day of inoculation, 1.0×10^7 PBMCs (100 μL) were injected via the tail vein. When the tumors grew to an average size of about 50-80 mm^3, the 18 tumor-bearing mice were randomly divided into 3 groups of 6 based on tumor volume and body weight.
Oleclumab is an anti-CD73 monoclonal antibody developed by AstraZeneca, currently in Phase 2 clinical trials. Uliledlimab is an anti-CD73 monoclonal antibody developed by I-Mab Biopharma, currently in Phase 1 clinical trials. The amino acid sequence of the heavy chain of 900543 is as set forth in SEQ ID NO. 45, and the amino acid sequence of the light chain of 900543 is as set forth in SEQ ID NO. 46. The amino acid sequence of the heavy chain of Oleclumab is as set forth in SEQ ID NO. 47, and the amino acid sequence of the light chain of Oleclumab is as set forth in SEQ ID NO. 48. The amino acid sequence of the heavy chain of Uliledlimab is as set forth in SEQ ID NO. 49, and the amino acid sequence of the light chain of Uliledlimab is as set forth in SEQ ID NO. 50.

Molecule	Endocytosis efficiency (%) [1]	inhibition of growth of BxPC-3 pancreatic cancer [2]	inhibitory effect on tumor growth compared with 900698, Oleclumab and Uliledlimab [2]
B1	about 95%	significantly inhibit the growth	superior
B2	about 95%	significantly inhibit the growth	superior
